Assay results as given in publication doi:10.1101/2020.06.24.169185 (bioRxiv, 2020).

B1: mCherry-Nanog (natural protein, UniProt Q80Z64 1-305, looked up)
chain: MSVGLPGPHSLPSSEEASNSGNASSMPAVFHPENYSCLQGSATEMLCTEAASPRPSSEDLPLQGSPDSSTSPKQKLSSPEADKGPEEEENKVLARKQKMRTVFSQAQLCALKDRFQKQKYLSLQQMQELSSILNLSYKQVKTWFQNQRMKCKRWQKNQWLKTSNGLIQKGSAPVEYPSIHCSYPQGYLVNASGSLSMWGSQTWTNPTWSSQTWTNPTWNNQTWTNPTWSSQAWTAQSWNGQPWNAAPLHNFGEDFLQPYVQLQQNFSASDLEVNLEATRESHAHFSTPQALELFLNYSVTPPGEI

Key:
mCherry-Nanog = molecular target: B1; assay: fluorescence cross-correlation spectroscopy
[1] = molecular target: the molecule itself; assay: fluorescence correlation spectroscopy
[2] = molecular target: the molecule itself; assay: fluorescence correlation spectroscopy; remark: listed apart in the source
[3] = molecular target: the molecule itself; assay: fluorescence correlation spectroscopy; remark: listed apart in the source

Binder | complex % (mCherry-Nanog) | GFP-Nanog/GFP brightness ratio [1] | stoichiometry N [2] | mCherry-Nanog/mCherry brightness ratio [3]
GFP-Sox2 (natural protein) not shown | 26.1% |  |  | 
GFP-Nanog (natural protein, UniProt Q80Z64 1-305, looked up) MSVGLPGPHSLPSSEEASNSGNASSMPAVFHPENYSCLQGSATEMLCTEAASPRPSSEDLPLQGSPDSSTSPKQKLSSPEADKGPEEEENKVLARKQKMRTVFSQAQLCALKDRFQKQKYLSLQQMQELSSILNLSYKQVKTWFQNQRMKCKRWQKNQWLKTSNGLIQKGSAPVEYPSIHCSYPQGYLVNASGSLSMWGSQTWTNPTWSSQTWTNPTWNNQTWTNPTWSSQAWTAQSWNGQPWNAAPLHNFGEDFLQPYVQLQQNFSASDLEVNLEATRESHAHFSTPQALELFLNYSVTPPGEI | 19.8% | ~1.5 | 2 | 
B1 |  |  |  | ~2
